US20020006903A1

What was measured:
[1] = molecular target: T cell receptor of 2C cytotoxic T lymphocytes; assay: cell-based or functional assay
[2] = molecular target: T cell receptor of 2C cytotoxic T lymphocytes; assay: flow cytometry on 2C T cells, actively loaded complex
[3] = molecular target: T cell receptor of 2C cytotoxic T lymphocytes; assay: flow cytometry on 2C T cells, passively loaded complex
[4] = molecular target: T cell receptor of 2C cytotoxic T lymphocytes; assay: flow cytometry on 2C T cells, actively loaded complex at 0.1 nM
[5] = molecular target: T cell receptor of 2C cytotoxic T lymphocytes; assay: flow cytometry on 2C T cells, varying concentrations of complex
[6] = molecular target: T cell receptor of 2C cytotoxic T lymphocytes; assay: flow cytometry on 2C T cells, actively against passively loaded complex
[7] = molecular target: T cell receptor of 2C cytotoxic T lymphocytes; assay: flow cytometry on 2C T cells, actively loaded complex, half maximal staining
[8] = molecular target: T cell receptor of 2C cytotoxic T lymphocytes; assay: flow cytometry on 2C T cells, passively loaded complex, half maximal staining

QL9 peptide-loaded H-2 L^d/Ig complex, sequence (P01897 25-309, one chain of several): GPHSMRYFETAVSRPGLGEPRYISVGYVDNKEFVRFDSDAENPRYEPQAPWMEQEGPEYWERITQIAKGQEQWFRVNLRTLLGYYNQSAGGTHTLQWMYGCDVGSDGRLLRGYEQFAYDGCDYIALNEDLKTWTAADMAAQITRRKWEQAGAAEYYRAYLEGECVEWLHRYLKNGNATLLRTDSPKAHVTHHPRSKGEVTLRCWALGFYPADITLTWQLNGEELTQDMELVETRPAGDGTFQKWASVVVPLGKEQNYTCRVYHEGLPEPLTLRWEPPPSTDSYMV
SIY peptide-loaded H-2 K^b/Ig complex, sequence (P01901 22-305, one chain of several): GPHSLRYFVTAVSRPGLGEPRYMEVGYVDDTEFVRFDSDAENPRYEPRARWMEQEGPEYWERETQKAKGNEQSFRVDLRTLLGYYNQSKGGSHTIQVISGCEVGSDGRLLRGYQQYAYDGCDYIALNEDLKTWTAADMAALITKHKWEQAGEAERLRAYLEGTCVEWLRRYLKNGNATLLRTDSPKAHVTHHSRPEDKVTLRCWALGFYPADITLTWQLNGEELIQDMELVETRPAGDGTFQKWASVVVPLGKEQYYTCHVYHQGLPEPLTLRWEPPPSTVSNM

Row | Substance | 2C CTL mediated lysis of target cells (specific lysis) [1] [%] | concentration of maximal inhibition of proliferation of 2C CTL stimulated by allogeneic splenic cells [1] [nM] | half maximal inhibition of proliferation of 2C CTL [1] [nM] | stimulation index of 2C CTL proliferation ([3H]thymidine) [1] | lowest concentration at which staining was seen [2] [nM] | concentration required for staining [3] [nM] | mean channel fluorescence (MCF) at 0.1 nM [4] | EC50 [5] [nM] | fold more effective in staining than the “passively” loaded complex [6] [fold] | EC50 [7] [nM] | EC50 [8] [nM] | half maximal inhibition of target cell lysis by 2C CTL [1] [nM] | target cell lysis by 2C CTL (percent specific lysis, chromium release) [1] [%]
1 | SIY peptide-loaded H-2 K^b/Ig complex (from UniProt P01901 22-305) (peptide-MHC) | 35 | 20 | 1 | 10 | 0.1 | 10 | 53 | 1 | 10 to 100 | 1 | 10 | – | –
2 | QL9 peptide-loaded H-2 L^d/Ig complex (from UniProt P01897 25-309) (peptide-MHC) | – | – | – | – | – | – | – | 1 | – | – | – | 10 | 2
